Reference: patent US20040097454A1, “Method for modulation of cell phenotype” (University Technology Corporation, priority 1999, published 2004)

Assays:
3T3-L1 cells = experiment: 3T3-L1 cell proliferation (Cell-Titer 96 Aq); format: cell-based; conditions: muristerone-treated versus control clones, 72 hours
Experimental: 3T3-L1 fibroblasts were passaged and treated with differentiation-inducing agents as previously described (Klemm et al., 1998, J. Biol. Chem., 273:917-923), incorporated herein by reference in its entirety. Plates of 3T3-L1 fibroblasts and adipocytes were grown to 70-80% confluency and transfected with the above-described plasmids with Superfect Reagent (Oiagen, Valencia, Calif.) according to the manufacturer's recommendations. Cells stably transfected with the plasmid, pVgRXR were selected for in conventional medium containing 500 ug/mi Zeocin, and cells stably transfected with pIND-VP16-CREB, pIND-KCREB or pIND-LacZ plasmids were selected for in medium containing 500 ug/ml Geneticin. Large, rapidly growing, well separated colonies were isolated 10 to 12 days after selection was begun with either antibiotic. […] The effect of VP16-CREB and KCREB expression on 3T3-L1 proliferation was assessed by measuring cell number with the Cell-Titer 96 Aq reagent system (Promega Corp., Madison, Wis.).
Two possible mechanisms by which CREB could potentiate adipose differentiation would be by increasing cell proliferation related to clonal expansion, or by inhibiting cell growth as a prelude to terminal differentiation. To examine these possibilities, changes in the rate of cell growth in control versus muristerone-treated VP16-CREB and KCREB expressing clones was measured.

[1] = tested on: PEPCK gene promoter in NIH 3T3-L1 clonal cell lines; experiment: Truncated CRE-containing PEPCK promoter luciferase reporter (-109 pPC-Luc) in 3T3-L1 clones; format: cell-based; conditions: VP16-CREB clones 2-4 and 9-7; muristerone; versus untreated cells
Experimental: To test the ability of KCREB and VP16-CREB expression to influence gene transcription, a plasmid containing a truncated, CRE-containing portion of the phosphoenolpyruvate carboxykinase (PEPCK) gene promoter linked to a luciferase reporter gene (−109 pPC-Luc) was transfected into each of the clones. […] Four hours later cell lysates were prepared and luciferase activity measured as an index of transcriptional activity. Levels are shown relative to levels of luciferase activity in untreated, control cells (No Add'n).

BASMC = experiment: Transient VP16CREB transfection in BASMC, phenotype; format: cell-based, bovine; conditions: preliminary transient transfections
Description: It is expected that dominant negative CREB and sense ICER will lead to SMC phenotypic modulation. If the dose delivered overwhelms the cells, apoptosis may occur. Assays to confirm or deny the induction of apoptosis are readily available in the lab in conjunction with the neurodegeneration REAP. Overexpression of WT CREB is likely to promote a differentiated phenotype. The present inventors have already provided data above showing arrest of cell cycle and decreased migration with CREB overexpression. The constitutively active CREB could induce ICER and promote dedifferentiation, promote proliferation by driving immediate early genes, or maintain the mature phenotype. Adenoviral overexpression of constitutively active signaling elements can lead to non-physiological protein interactions. […] The dominant negative CREB and ICER overexpression experiments will be the most informative for the question of how CREB down-regulation impacts phenotype.

[2] = tested on: PEPCK, FABP and FAS gene promoters in 3T3-L1 fibroblasts; experiment: Full length PEPCK, FABP and FAS promoter luciferase reporters in 3T3-L1 fibroblasts; format: cell-based; conditions: relative to untreated cells
Experimental: Control, VP16-CREB or KCREB inducibly expressing 3T3-L1 fibroblasts were transfected with plasmids containing the full length promoters of the PEPCK, FABP or FAS genes linked to luciferase. The cells were cotransfected with the internal control plasmid, pRSV-pGal. […] Cell lysates were then prepared, and luciferase activity measured as an index of transcriptional activity. Levels of transcription are shown relative to levels measured in untreated cells for each promoter tested, and were corrected for transfection efficiency.

[3] = tested on: NIH 3T3-L1 preadipocyte cell lines; experiment: Adipocyte differentiation assay, Oil Red O staining of triacylglycerol; format: cell-based; conditions: muristerone-induced expression alone, no differentiation agents, 10 days
Experimental: Differentiation assays were performed on cells growing on 8 chamber microscope slides. […] The cells were treated with a differentiation mixture, muristerone, or both. […] Muristerone was added to medium at a final concentration of 10 uM for the entire 10 day differentiation period. After 10 days in culture, the cells were stained with Oil Red 0 to visualize triacylglycerol vesicles as previously described (Klemm et al., 1998, J. Biol. Chem., 273:917-923), and counterstained with hematoxylin to visualize cell morphology. Cells were observed by brightfield microscopy and representative fields, were photographed.

[4] = tested on: CREluc reporter in HEK cells; experiment: CREluc reporter in HEK cells transfected with CREB constructs; format: cell-based; conditions: transient transfection of adenoviral expression plasmids
Description: CDNA for KCREB, CREB DIEDML and VP16CREB were cloned into adenoviral expression vectors as described previously herein. The plasmids were transiently transfected into HEK cells to assess their impact upon a cotransfected CREluc reporter construct. […] Transfected cells were also lysed and CREB protein content and Flag content assayed Western analysis. All proteins were highly expressed in HEK cells (data not shown).

[5] = tested on: PPARγ2 and FABP expression in 3T3-L1 cell lines; experiment: Expression of adipocyte-specific markers PPARγ2 (Western) and FABP (RNA blot); format: cell-based; conditions: muristerone-treated VP16-CREB cell lines, absence of other differentiation-stimulating agents
Experimental: In this experiment, control, VP16-CREB and KCREB expressing cells lines were grown and treated as above. On days 0 and 10 of the experiment, whole cell lysates and total RNA were prepared from duplicate wells of cells. Approximately 25 ug of protein in the cell lysates (lysed directly on multiwell slides in SDS gel loading buffer) was separated on 10% polyacrylamide-SDS gels and transferred to nitrocellulose blots. The blots were probed with a polyclonal antibody to PPARγ2, and the specific PPARγ2 band is indicated by an * in the top row of blots (FIG. 3).
Similarly, 10 ug of total RNA was separated on 1% denaturing (formaldehyde) agarose gels run at 5 V/cm until the Bromophenol Blue tracking dye had migrated half the length of the gel. The gels were soaked in several changes of distilled water, overnight at 4° C., and stained with ethidium bromide and briefly examined in ultraviolet light to insure RNA integrity and equivalent RNA amounts in each lane. The gels were destained in several changes of 5× sodium chloride/sodium citrate (SSC) buffer. RNA was transferred onto nitrocellulose membranes. The resulting blots were heated to 80° C. under vacuum for two hours. The membranes were blocked for 30 minutes at 70° C., and then a biotin-labeled FABP-specific oligonucleotide probe (250 fg/ml) was added for an additional 30 min. […]

B1: VP16-CREB: constitutively active fusion protein: VP16 transactivation domain (aa 412-490) linked to CREB DNA binding domain (aa 217-327), SEQ ID NO:6 (protein, listed as Homo sapiens)
chain: MAPKKKRKVPGVPSSNCIDTAPPTDVSLGDELHLDGEDVAMAHADAHDDFDLDMLGDGDSPGPGFTPHDSAPYGALDMADFEFEQMFTDALGIDEYGGIDWILVPSNQVVVQAASGDVQTYQIRTAPTSTIAPGVVMASSPALPTQPAEEAARKREVRLMKNREAARECRRKKKEYVKCLENRVAVLENQNKTLIEELKALKDLYCHKSZ
B1 was tested, and the “rate of cell proliferation” value (3T3-L1 cells) was “No significant differences in the rate of cell proliferation”, the “luciferase production from the PEPCK promoter fragment, stimulation” value [1] was 3.5 to 4 fold and the SMC phenotype (BASMC) was “phenotypic changes consistent with increased differentiation”. The “transcription (luciferase) from full-length PEPCK, FABP and FAS promoters” value [2] was “stimulated”, the “triacylglycerol accumulation and cell morphology (Oil Red O)” value [3] was “sufficient to induce triacylglycerol accumulation and rounded cell morphology” and the “CREluc reporter luciferase expression” value [4] was “strongly drive the reporter”. For the same molecule, the “PPARγ2 and FABP expression, day 10” value [5] was “easily detected”.
